“And” between values parts separate entries of the source, which are not always exact repeats. Identical values can stand only once.
How the values were obtained:
[1] = biological target: T1, human IgE (human, UniProt P01854); assay: competition SPR, pH 6.0
T1 chain: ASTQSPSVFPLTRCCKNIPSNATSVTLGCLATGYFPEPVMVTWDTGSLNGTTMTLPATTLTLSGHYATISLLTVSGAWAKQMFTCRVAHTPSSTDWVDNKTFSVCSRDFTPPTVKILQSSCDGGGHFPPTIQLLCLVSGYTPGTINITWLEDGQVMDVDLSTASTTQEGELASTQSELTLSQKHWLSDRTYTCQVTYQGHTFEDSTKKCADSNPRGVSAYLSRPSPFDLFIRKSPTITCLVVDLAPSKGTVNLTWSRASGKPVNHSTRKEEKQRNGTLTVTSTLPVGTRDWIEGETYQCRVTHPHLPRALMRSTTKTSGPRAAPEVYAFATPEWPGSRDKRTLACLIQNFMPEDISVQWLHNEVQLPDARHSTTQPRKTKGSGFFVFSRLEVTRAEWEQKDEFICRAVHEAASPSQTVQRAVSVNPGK

[2] = biological target: T1, human IgE; assay: competition SPR, pH 7.4
[3] = biological target: T1, human IgE; assay: competition SPR, pH 6.0
[4] = biological target: T1, human IgE; assay: competition SPR, pH 7.4
[5] = biological target: T1, human IgE; assay: competition ELISA, pH 6.0
[6] = biological target: T1, human IgE; assay: competition ELISA, pH 7.4
[7] = biological target: T1, human IgE; assay: competition ELISA, pH 7.4
[8] = biological target: T1, human IgE; assay: competition ELISA, pH 6.0
[9] = biological target: T1, human IgE; assay: competition SPR, pH 7.4
[10] = biological target: T1, human IgE; assay: competition SPR, pH 5.5
[11] = biological target: T1, human IgE; assay: ELISA, pH 5.5
[12] = biological target: T1, human IgE; assay: ELISA, pH 7.4
[13] = biological target: T1, human IgE; assay: competition ELISA
[14] = biological target: T1, human IgE; assay: SPR
[15] = biological target: T1, human IgE; assay: SPR, pH 6.0
[16] = biological target: T1, human IgE; assay: SPR, pH 7.4

| Binder | IC50 [2] | IC50 [3] | IC50 [7] | IC50 [8] | also measured |
| --- | --- | --- | --- | --- | --- |
| 13E4 (antibody, V domains shown) VH: ELQLVESGGGLVQPGGSLRLSCAASGFTFSSYVMSWVRQAPGKGLEWVSSIYHDGSHTYYADFVKGRFTISRDNAKNTLYLQMNSLKSEDTAVYYCASGTSYSGSYYYTDPFFGSWGQGTQVTVSS VL: HSAVTQPSALSVTLGQTAKITCQGGSLGSNYAYWYQQKPGQAPVLVIYDDDSRPSGIPERFSGSSSGGTATLTISGAQAEDEGDYYCQSADSNGNAVFGGGTHLTVL | 2.3 µg/mL | 2.5 µg/mL | 0.00682 µg/mL | 0.0114 µg/mL | IC50 [1]: 1.54 nM; IC50 [4]: 1.62 nM; IC50 [5]: 12.9 nM; IC50 [6]: 10.3 nM |
| VL18B9_Y49H (18B9His) (antibody, V domains shown) VH: QVQLVESGGGLVQPGGSLRLSCAASGFTFSSYVMSWVRQAPGKGLEWVSSIYSDGSHTYYADSVKGRFTISRDNAKNTLYLQMNSLKSEDTAVYYCAKNLEHYSGSYYYTDPRYDYWGQGTQVTVSS VL: SSALTQPSALSVTLGQTAKITCQGGSLGSSYVHWYQQKPGQAPVLVIHDGDSRPSGIPERFSGSSSGGTATLTISGAQAEDEDDYYCQSADSSGNAVFGGGTHLTVL | 2.7 µg/mL | 58.5 µg/mL | 0.19 µg/mL | 3.02 µg/mL | IC50 [9]: 0.749 µg/mL; IC50 [10]: 4.06 µg/mL |
| 18B9His-hIgG1-ABDEG (antibody, V domains shown) VH: QVQLVESGGGLVQPGGSLRLSCAASGFTFSSYVMSWVRQAPGKGLEWVSSIYSDGSHTYYADSVKGRFTISRDNAKNTLYLQMNSLKSEDTAVYYCAKNLEHYSGSYYYTDPRYDYWGQGTQVTVSS VL: SSALTQPSALSVTLGQTAKITCQGGSLGSSYVHWYQQKPGQAPVLVIHDGDSRPSGIPERFSGSSSGGTATLTISGAQAEDEDDYYCQSADSSGNAVFGGGTHLTVL | 2.9 µg/mL | 52.9 µg/mL | 0.13 µg/mL | 2.55 µg/mL | – |
| 18E2_VLY34H_MG (18E2VL) (antibody, V domains shown) VH: QLLESGGGLVQPGGSLRLSCAASGFTFSSYVMSWVRQAPGKGLEWVSSIYHDGSHTYYADFVKGRFTISRDNSKNTLYLQMNSLRAEDTAVYYCAKGTSYSGSYYYTDPFFGSWGQGTLVTVSS VL: SSELTQDPAVSVALGQTVRITCQGDRLGSRYIHWYQQKPGQAPVLVIYDDDRRPSGIPDRFSGSSSGNTASLTITGAQAEDEADYYCQSADSSGNPVFGGGTQLTVL | – | – | – | – | EC50 [11]: 0.0269 µg/mL and 0.0323 µg/mL; EC50 [12]: 0.02 µg/mL and 0.0163 µg/mL; IC50 [13]: 6.06 nM |
| 13E4-hIgG1-ABDEG (antibody, V domains shown) VH: ELQLVESGGGLVQPGGSLRLSCAASGFTFSSYVMSWVRQAPGKGLEWVSSIYHDGSHTYYADFVKGRFTISRDNAKNTLYLQMNSLKSEDTAVYYCASGTSYSGSYYYTDPFFGSWGQGTQVTVSS VL: HSAVTQPSALSVTLGQTAKITCQGGSLGSNYAYWYQQKPGQAPVLVIYDDDSRPSGIPERFSGSSSGGTATLTISGAQAEDEGDYYCQSADSNGNAVFGGGTHLTVL | 3 µg/mL | 3.2 µg/mL | 0.0065 µg/mL | 0.0106 µg/mL | – |
| OMA VH15-VL3 (antibody, V domains shown) VH: EVQLVESGGGLVQPGGSLRLSCAVSGYSITSGHRWEWIRQAPGKGLEWVASIHYDGSTNYNPSVKGRITISRDDSKNTFYLQMNSLRAEDTAVYYCARATHYFGHWHFAVWGQGTLVTVSS VL: DIQLTQSPSSLSASVGDRVTITCRASQSVDYDGDSYMNWYQQKPGKAPKLLIEWGSYLRSGVPSRFSGSGSGTDFTLTISSLQPEDFATYYCQQNAEDPYTFGQGTKVEIK | – | – | – | – | Kd [14]: 0.0874 pM |
| 18E2VLHis MG hIgG1-ABDEG (antibody, V domains shown) VH: QLLESGGGLVQPGGSLRLSCAASGFTFSSYVMSWVRQAPGKGLEWVSSIYHDGSHTYYADFVKGRFTISRDNSKNTLYLQMNSLRAEDTAVYYCAKGTSYSGSYYYTDPFFGSWGQGTLVTVSS VL: SSELTQDPAVSVALGQTVRITCQGDRLGSRYIHWYQQKPGQAPVLVIYDDDRRPSGIPDRFSGSSSGNTASLTITGAQAEDEADYYCQSADSSGNPVFGGGTQLTVL | – | – | – | – | Kd [15]: 205 nM; Kd [16]: 5.91 nM |
| 18E2_VH_S35H_VL_Y34H (18E2His2) (antibody, V domains shown) VH: QLQLVESGGGLVQPGGSLRLSCAASGFTFSSYVMHWVRQAPGKGLEWVSSIYHDGSHTYYADFVKGRFTISRDNAKNTLYLQMNSLKSEDTAVYYCASGTSYSGSYYYTDPFFGSWGQGTQVTVSS VL: NFMLTQPSALSVTLGQTARITCQGDRLGSRYIHWYQQKPPQAPVLVIHDDDRRPSGIPERFSGSSSGGTATLTISGAQAEDDGDYYCQSADSSGNPVFGGGTHLTVL | 6 µg/mL | 6310 µg/mL | 2.48 µg/mL | 77.2 µg/mL | IC50 [9]: 1.56 µg/mL; IC50 [10]: 9.86 µg/mL |
| 18E2His2-hIgG1-ABDEG (antibody, V domains shown) VH: QLQLVESGGGLVQPGGSLRLSCAASGFTFSSYVMHWVRQAPGKGLEWVSSIYHDGSHTYYADFVKGRFTISRDNAKNTLYLQMNSLKSEDTAVYYCASGTSYSGSYYYTDPFFGSWGQGTQVTVSS VL: NFMLTQPSALSVTLGQTARITCQGDRLGSRYIHWYQQKPPQAPVLVIHDDDRRPSGIPERFSGSSSGGTATLTISGAQAEDDGDYYCQSADSSGNPVFGGGTHLTVL | 5.8 µg/mL | 7320 µg/mL | 1.49 µg/mL | 26.6 µg/mL | – |

Reference: US20260347506 (published 2026)
